Test results published in paper PMC9298051, “A phytobacterial TIR domain effector manipulates NAD^+ to promote virulence” (The New Phytologist, 2021).

Columns and labels:
[1] = biological target: T1, AbTIR (Acinetobacter baumannii, UniProt A0A009IHW8); test: HPLC of reaction products; assay type: biochemical; conditions: product v-cADPR
T1 construct: gene J512_3302; His-tagged recombinant AbTIR-His

[2] = test system: NC(=O)c1ccc[n+]([C@@H]2O[C@H](COP(=O)(O)OP(=O)(O)OC[C@H]3O[C@@H](n4cnc5c(N)ncnc54)[C@H](O)[C@@H]3O)[C@@H](O)[C@H]2O)c1; test: purified protein; conditions: room temperature, 60 min, 1–600 μM NAD+

T1 sequence (A0A009IHW8 whole entry): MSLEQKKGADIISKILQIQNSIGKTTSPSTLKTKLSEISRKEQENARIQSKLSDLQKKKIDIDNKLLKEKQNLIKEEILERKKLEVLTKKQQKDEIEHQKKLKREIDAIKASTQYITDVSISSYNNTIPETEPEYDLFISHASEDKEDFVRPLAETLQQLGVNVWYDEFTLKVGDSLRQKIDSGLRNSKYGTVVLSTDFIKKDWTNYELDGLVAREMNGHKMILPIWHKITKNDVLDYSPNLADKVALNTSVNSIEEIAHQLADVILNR

Row | Molecule | HPLC of reaction products [1] | Km [2] | kcat [2]
1 | NC(=O)c1ccc[n+]([C@@H]2O[C@H](COP(=O)(O)OP(=O)(O)OC[C@H]3O[C@@H](n4cnc5c(N)ncnc54)[C@H](O)[C@@H]3O)[C@@H](O)[C@H]2O)c1 [NAD^+] | NAD^+ hydrolase reactions were conducted with purified HopAM1 and AbTIR |  | 
2 | HopAM1 (Pseudomonas syringae pv. tomato str. DC3000) |  | 174.8 µM | 0.56 min⁻¹
